Laboratory results as given in article doi:10.1101/2020.05.28.119206.

Target: recombinant medaka ZI-3 precursor (Y74-V420) (medaka)
Experiment: SEC-MALS

stoichiometry N: 2
Substance: recombinant medaka ZI-3 precursor (Y74-V420) (domain or fragment)
